Test results taken from the supplement of paper PMC9112550, “Optimization of the antimicrobial peptide Bac7 by deep mutational scanning” (BMC Biology, 2022).

System: Escherichia coli TOP10
Test: shrunken log2 fold change of peptide-encoding DNA abundance (4.5 h post-induction vs induction); higher = less antimicrobial activity (less host growth inhibition)
Details: time post-induction: 4.5 h; library: site-saturation at positions 5, 18, 19, 20
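Also: peptides expressed intracellularly from a pBAD plasmid library in pooled LB shake-flask culture, induced with 0.3% L-arabinose, DNA abundance read by NGS, three biological replicates, DESeq2 with apeglm shrinkage.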

Sequence | shrunken log2 fold change
RRIRSRPPRLPRPRPRPWKRPRP | -0.000813
RRIRGRPPRLPRPRPRPEVLPRP | 1.83
RRIRFRPPRLPRPRPRPYERPRP | -0.119
RRIRHRPPRLPRPRPRPGCFPRP | -0.181
RRIRGRPPRLPRPRPRPSSCPRP | 0.316
RRIRLRPPRLPRPRPRPVPYPRP | -0.2
RRIRIRPPRLPRPRPRPWTMPRP | -0.163
RRIRYRPPRLPRPRPRPAKFPRP | -0.331
RRIRFRPPRLPRPRPRPHPTPRP | -0.133
RRIRKRPPRLPRPRPRPKKVPRP | -0.0126
RRIRFRPPRLPRPRPRPHGYPRP | -0.707
RRIRARPPRLPRPRPRPHDDPRP | -0.0805
RRIRFRPPRLPRPRPRPLVLPRP | -0.251
RRIRKRPPRLPRPRPRPNPHPRP | 0.188
RRIRNRPPRLPRPRPRPQVGPRP | 0.00312
RRIRHRPPRLPRPRPRPQQRPRP | 0.403
RRIRHRPPRLPRPRPRPTDVPRP | -0.217
RRIRTRPPRLPRPRPRPYNGPRP | -0.203
RRIRERPPRLPRPRPRPRQDPRP | -0.0529
RRIRKRPPRLPRPRPRPWQDPRP | -0.0361
RRIRFRPPRLPRPRPRPIECPRP | -0.00174
RRIRCRPPRLPRPRPRPDQEPRP | 0.0455
RRIRQRPPRLPRPRPRPILLPRP | -0.0814
RRIRRRPPRLPRPRPRPCESPRP | 0.0471
RRIRIRPPRLPRPRPRPDWTPRP | 0.0313

Sequence | shrunken log2 fold change
RRIRARPPRLPRPRPRPVYFPRP | -0.135
RRIRKRPPRLPRPRPRPFCDPRP | 0.144
RRIRNRPPRLPRPRPRPFYCPRP | -0.937
RRIRLRPPRLPRPRPRPGQAPRP | 0.39
RRIRSRPPRLPRPRPRPAVFPRP | 0.114
RRIRQRPPRLPRPRPRPQNNPRP | -0.54
RRIRMRPPRLPRPRPRPDPFPRP | 0.0255
RRIRRRPPRLPRPRPRPIQDPRP | 2.65
RRIRYRPPRLPRPRPRPQRNPRP | -0.758
RRIRNRPPRLPRPRPRPCEGPRP | 0.111
RRIRMRPPRLPRPRPRPSSFPRP | -0.0557
RRIRKRPPRLPRPRPRPDHSPRP | -0.148
RRIRARPPRLPRPRPRPYMKPRP | -0.366
RRIRDRPPRLPRPRPRPLDLPRP | -0.116
RRIRRRPPRLPRPRPRPGPAPRP | 0.562
RRIRDRPPRLPRPRPRPFYAPRP | -0.439
RRIRQRPPRLPRPRPRPICTPRP | -0.0531
RRIRIRPPRLPRPRPRPDFKPRP | 3.01
RRIRVRPPRLPRPRPRPQTPPRP | 0.546
RRIRPRPPRLPRPRPRPFECPRP | -0.242
RRIRFRPPRLPRPRPRPQTFPRP | -0.127
RRIRIRPPRLPRPRPRPFCQPRP | -0.412
RRIRIRPPRLPRPRPRPLSNPRP | -0.893
RRIRTRPPRLPRPRPRPSWTPRP | -0.468
RRIRCRPPRLPRPRPRPFMTPRP | -0.737

Sequence | shrunken log2 fold change
RRIRLRPPRLPRPRPRPQIVPRP | -0.0529
RRIRHRPPRLPRPRPRPASMPRP | 0.0822
RRIRCRPPRLPRPRPRPKFSPRP | -0.0966
RRIRPRPPRLPRPRPRPFHKPRP | -0.453
RRIRNRPPRLPRPRPRPAFSPRP | -0.183
RRIRVRPPRLPRPRPRPTYTPRP | -0.172
RRIRLRPPRLPRPRPRPITIPRP | 0.0213
RRIRQRPPRLPRPRPRPNLRPRP | 0.0769
RRIRERPPRLPRPRPRPPWHPRP | -0.0644
RRIRPRPPRLPRPRPRPAGRPRP | 0.395
RRIRPRPPRLPRPRPRPYMHPRP | -0.493
RRIRCRPPRLPRPRPRPTANPRP | 0.0466
RRIRPRPPRLPRPRPRPSSIPRP | -0.824
RRIRHRPPRLPRPRPRPETTPRP | 0.194
RRIRYRPPRLPRPRPRPKNAPRP | -0.186
RRIRSRPPRLPRPRPRPDLYPRP | -0.171
RRIRERPPRLPRPRPRPWPCPRP | 0.151
RRIRARPPRLPRPRPRPQNVPRP | -0.035
RRIRPRPPRLPRPRPRPKCHPRP | 0.0622
RRIRERPPRLPRPRPRPFPFPRP | -0.629
RRIRPRPPRLPRPRPRPENYPRP | -0.283
RRIRERPPRLPRPRPRPNDPPRP | -0.488
RRIRTRPPRLPRPRPRPCKVPRP | -0.233
RRIRRRPPRLPRPRPRPWVQPRP | 0.25
RRIRQRPPRLPRPRPRPSGHPRP | -0.0673

Sequence | shrunken log2 fold change
RRIRERPPRLPRPRPRPTWNPRP | -0.167
RRIRTRPPRLPRPRPRPFDAPRP | -0.343
RRIRCRPPRLPRPRPRPKWWPRP | 0.0539
RRIRFRPPRLPRPRPRPAGEPRP | 0.191
RRIRSRPPRLPRPRPRPDECPRP | 0.0932
RRIRSRPPRLPRPRPRPHPGPRP | 0.00228
RRIRNRPPRLPRPRPRPPCDPRP | -0.0173
RRIRRRPPRLPRPRPRPAPWPRP | 0.626
RRIRLRPPRLPRPRPRPPQWPRP | 0.322
RRIRIRPPRLPRPRPRPICYPRP | -0.325
RRIRGRPPRLPRPRPRPSYQPRP | -0.0215
RRIRQRPPRLPRPRPRPLAWPRP | 0.15
RRIRTRPPRLPRPRPRPERQPRP | -0.0252
RRIRDRPPRLPRPRPRPYKDPRP | -0.221
RRIRTRPPRLPRPRPRPEVKPRP | 0.174
RRIRIRPPRLPRPRPRPNMVPRP | -0.383
RRIRPRPPRLPRPRPRPKSYPRP | -0.0208
RRIRKRPPRLPRPRPRPEYIPRP | -0.367
RRIRTRPPRLPRPRPRPECVPRP | 0.148
RRIRPRPPRLPRPRPRPYGPPRP | -0.37
RRIRPRPPRLPRPRPRPAKYPRP | -0.317
RRIRYRPPRLPRPRPRPHMKPRP | -0.489
RRIRSRPPRLPRPRPRPWIQPRP | -0.00956
RRIRCRPPRLPRPRPRPVKMPRP | -0.248
RRIRMRPPRLPRPRPRPRFTPRP | 0.323

Sequence | shrunken log2 fold change
RRIRWRPPRLPRPRPRPSIFPRP | -0.396
RRIRFRPPRLPRPRPRPTASPRP | 0.384
RRIRQRPPRLPRPRPRPPTHPRP | 0.106
RRIRQRPPRLPRPRPRPMYLPRP | -0.415
RRIRPRPPRLPRPRPRPAHFPRP | 0.111
RRIRSRPPRLPRPRPRPSTGPRP | -0.417
RRIRHRPPRLPRPRPRPFRDPRP | 0.0888
RRIRERPPRLPRPRPRPMFTPRP | -0.278
RRIRLRPPRLPRPRPRPDNFPRP | 0.0569
RRIRPRPPRLPRPRPRPRALPRP | 0.388
RRIRIRPPRLPRPRPRPAKGPRP | -0.224
RRIRMRPPRLPRPRPRPWRKPRP | 0.506
RRIRNRPPRLPRPRPRPKHCPRP | -0.111
RRIRGRPPRLPRPRPRPWWKPRP | 0.0639
RRIRRRPPRLPRPRPRPNHWPRP | 0.0169
RRIRNRPPRLPRPRPRPYIAPRP | -0.172
RRIRDRPPRLPRPRPRPNMGPRP | 0.102
RRIRMRPPRLPRPRPRPFSQPRP | -0.0398
RRIRVRPPRLPRPRPRPRHPPRP | 0.278
RRIRSRPPRLPRPRPRPSMPPRP | -0.706
RRIRGRPPRLPRPRPRPMPGPRP | 0.479
RRIRWRPPRLPRPRPRPMSNPRP | 0.0465
RRIRIRPPRLPRPRPRPDRAPRP | -0.169
RRIRRRPPRLPRPRPRPLNCPRP | -0.304
RRIRTRPPRLPRPRPRPMKYPRP | -0.0467
